Laboratory results taken from the nanobody polyreactivity screen of Harvey et al. (2022).

Assay: yeast display, Sf9 membrane polyspecificity reagent, FACS + sequencing; frameworks hold sequencing errors
How it was run: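 Genes from sorted yeast were amplified by colony PCR, read by MiSeq 2 × 250 sequencing and filtered on CDR length. These cells carried a synthetic nanobody library in Saccharomyces cerevisiae BJ5465 and were sorted by FACS into low and high (top ~1%) gates on anti-HA and streptavidin fluorescence. Polyreactivity is labelled according to the gate of origin.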

Row | Sequence | polyreactivity (PSR sort gate)
1 | QVQLVESGGGLVQAGGSLRLSCVASARTFFRYAMGWYRQAPGKERELVADITRGGSTYYADSVKGRFTISRDNAKNTVYLQMNSLKPEDTAVYYCNADGRVQRKYDYWGQGTQVTVSS | high polyreactivity
2 | QVQLVESGGGLVQAGGSLRLSCAASGYTFRYYGMGWYRQAPGNERELVADINSNGVRTYYADSVKGRFTISRDNAKNTVYVQMNSLKPEDTAVYYCNKDWGRYRYDYWGQGTQVTVSS | high polyreactivity
3 | QVQLVESGGGLVQAGGSLRLSSASSGFTFTFYAMGWYRQEPGKERELVAAISKGGGSTSYADSVKGRFTISRDNAKNTVYLQMNCLKPEETAVYYCAARYYYSRSRLYYYWGQGTQVTVSS | high polyreactivity
4 | QVQLVESGGGLVQAGGSIRLSCAASGFTFSQYVMGWYRQAPGKERELVAAISYRGGSTYYADSVKGRFTSARDNAKNTVYLQMNSLQPEDTAVYYGAAVAYSWHNRYDYCGQGTQVTVSS | high polyreactivity
5 | QVQLVESGGGLVQAGGSLRLSCAASGRIFGLNAMGWYRQAPGKERELVAAISERDGSTYYADSVKGRFTISRDNAKNTVYLQMNSLKPEDTAVYYCAAVTPVHYVRGVHYDYWGQGTQVTVSS | low polyreactivity
6 | QVQLVESGGGLVQAGGSLRLSCAASGSTFWSYAMGWYRQATGKERELVAAITSGGRTYYADSVKGRFTISRDNAKNTVYLQMNCLKAEDTAVYYCAAEGSVGLYGMIMHYWGQGTQVTVSS | high polyreactivity
7 | QVQLVESGGGLVQAGGSLRLSCAASGRTFYGNVMGWYRQPPGKERELVATISFSAGSTYYADSVKGRFTISRDNAKNTVYLQMNSLKPEDTAVYYCNADHTDYATGGGNYWGQGTQVTVSS | low polyreactivity
8 | QVQLVESGGGLVQAGGSLRLSCAASGSTFVYYTMGWYRQAPGKERELVAAINNGGSTYYADSVKGRFTISRDNAKNTVYLQMNSLKPEDTAFYYCARFTSRVSKYYWGQGSQVTVSS | low polyreactivity
9 | QVQLVESGGGLVQAGGSLRLSCAASGFTFYLNAMGWYRQAPGKERELVAAITRRGTSTYYADSVKGRFTISRDNAKNTVYLQMNSLKPEDTAVYYCAARPLDYWGQGTQVTVSS | high polyreactivity
10 | QVQLVESGGGLVQAGGSLRLSCAASGRTFVTNAMGWYRQAPGKERELVAAISSGDDSTYYADSVKGRFTISRDNAKNTVYLQMNSLKPEDTAVYYCAAEGYYVDYYFYFHGFDYWGQGTQVTVSS | high polyreactivity
11 | QVQLVESGGGLVQAGGSLRLSCAASGSIFVYNAMGWYRQAPGKEWELVAAISFSGGDTYYADSVKGRFTISRDNAKNTVYLQMNSLKPEDTAVYYCNVDNSEYEGDYWGQGTQVTVSS | low polyreactivity
12 | QVQLVESGGGLVQAGGSLRLSCAASGRIFVPYAMGWYRQAPGKERELVAAISWRGGSTNYADSVKGRFTISRDNAKNTVYLQMNSLKPEDTAVYYCAAVPVRYRYSYGYYYWGQGTQVTVSS | high polyreactivity
13 | QVQLVESGGGLVQAGGSLRLSCAASGRIFSRNAMGWYRQAPGKERELVAAISGSGGSTYYADSVKGRFTISRDNAKNTVYLQMNSLKPEDTAVYYCNKFGYHREYDYWGQGTQVTVSS | low polyreactivity
14 | QVQLVESGGGLVQAGGSLRLICASSGRIFAGYAMGWYRQAPGKERELVAAIRDSGRTYYAVSVKGRFTISRDNAKNTVYLQMNSLKPEVTAVSYCAADAHSSYSPFRWYDYWGQGTQVTVSS | low polyreactivity
15 | QVQLLESGGGLVQAGGSLRLSCAASGFTFKRNAKGWYRQAPGKEREFVAAITSSGGSTYYADSVKGRFTISRDNAKNTVYLQMNSLKPEDTAVYYCAARSKGAYPTRPLPGGYGYWGQGTQVTVSS | high polyreactivity
16 | QVQLVESGGGLVQAGGSLRLSCAASGFTFQRYAMGWYRQAPGKERELVADISRSGGSTYYADSVKGRFTISRDNAKNTVYLQMNSLKPEDTAVYYCAAGYPGYDSYYKFYYWGQGTQVTVSS | high polyreactivity

Row | Sequence | polyreactivity (PSR sort gate)
17 | QVQLVESGGGIVQAGRSLRLSCAASGRTFHGYAMGWYRQAPGKERELVAAITGTGGRTYYAESVKGRFTISRDKAKNTVYLQMNSLKPEDTAVYYCAARPWIKSGYWGQGTQVTVSS | high polyreactivity
18 | QVQLVESGGGLVQGGGSLRLSCAASGFTFVYYAMGWDRQAPGKERELVAAISRSGGSTYYADSVKGRFTISRDNAKNTFYLQMNSLKPEDTAVYYCAARKNYGSRLSYEYWGQGTQVSVSS | high polyreactivity
19 | QVQLVESGGGLVQAGGSLRLSCAASGITFILNPMGWNRQAPGKEREFVAAISTSGGNTYYADSVKGRFTISRDYAKYTVYLEMNSLKPEDTAVYYCNADWGVVYISYSPEYDYWGHGTQVTVSS | low polyreactivity
20 | QVQLVESGGGLVQAGGSLRLSCAASGFTFTYYAMGWYRQAPGKERELVATISSGGSTYYADSVKGRFTISRDNAKNTVYLQMNSLKPEDTAVYYCAAERGAITPLVYPPEFDYWGHGTQVTVSS | low polyreactivity
21 | QVQLVESGGGLVQAGGSLRLSCAASGLTFAKNAMGWYRQAPGKERELVAAITTGGSTYYADSVKGRFTISRDNAKNTVYLQMNSLKPEDTAVYYCAAQILVRHIPYYYWGQGTQVTVSS | high polyreactivity
22 | QVQVVESGGGLVQAGGSLRLSCAASGFIFPYYAMGWYRQAPGKEWELVAAISWSGSNTYYADSVKGRFTISRDNAKNTDYLQMNSLKPEATAVYYCAARYSVYYFVQRNGRYDDWGQGTQVTVSS | high polyreactivity
23 | QVQLVESGGGLVQAGGSLRLICADSGSIFVYYLMVWYRQAPGKEREFVAAISYGGGSTYYADSVKGRFTISRDNAKNTVYLQMNSLKPEDTAVYYCNTDIYSDYVCEEYEYWGQGTQVTLSS | high polyreactivity
24 | QVQLVESGGGLVQAGGSLRLSCAACGRIFNRYAMGWYRQAPGKERELVAAIRYSGGRTYYADSVKGRFTISRDNAKNTVYLQMNSLKPEDTAVYYCAADGQWYYAPFRGGDYENDYWGQGTQVTVSS | low polyreactivity
25 | QVQLVESGGGLVQAGGSLRLSCAASGSTFSPYALGWYRQATGKERELVAAISASGVGTYYADSVKGRFTISRDYAKNPVYLQMNRLIPEDTAVYYCCRDYGWDISKGRYGYWGQGTQVTVSS | low polyreactivity
26 | QVQLVESGGCLVQAGGSLRLSCAASGSIFIWYAMGWYRQAPGKERELVASITYSAGRTYYADSVKGRFTISRDNAKNTVYLQMNSLKPEDTAVYYCAADSPYVYTLDSYGEGDYWGQGTQVTVSS | low polyreactivity
27 | QVQLVESGGGLVQAGGSLRLSCAASGYTITQNAMGWYRQAPGKERELVASITSGGSTDYADSVKGRFTISRDNAKNTVYLQMNSLKPEDTAVYYCAAGTATDVASIGATKDYDYWGQGTQVTVSS | low polyreactivity
28 | QVQLVESGGGLVQAGGSLRLSCAASGFIFGSYAMGWYRQAPGKERELVAAINWSGGSTYYADSVKGRFTISRDNAKNTVYLQMNSLKPDDTAVYYCAADRTYYSFLYYPWVDFDYWGQGTQVTVSS | high polyreactivity
29 | QVQLVESGGGLVQAGGSLRLSCAASGIIFRTYDMGWYRQAPGKERELVANISWSAGSTYYADSVKGRFTISRDNAKNTVYLQMNSLKPEDTAVYFCNAVRLYPSSYDYWGQGTQVTVSS | low polyreactivity
30 | QVQLVESGGGLVQAGCSLRLSCAASGFTFDGYAMVSYRQAPGKERELVAAISDSGDSTYYADSVKGRFTISRDNAKNTVYLQMISLKPEDTADYYCAAALGYYWSDYFAYDYWGQGTQVTVSS | low polyreactivity
31 | QVQLVESGGCLVQAGGSLRLSCAASGYTFRYNAMGWYRQAHGKERELVATITRGGSTNYADSVKGRFTISRDNEKNTVYLLMYSLKPEDPAVYYCNKEAAPLGFVPSYYGRDYWRQGTQVTVSS | low polyreactivity
